Measurements as given in paper PMC9605926, “Safety of [^177Lu]Lu-NeoB treatment: a preclinical study characterizing absorbed dose and acute, early, and late organ toxicity” (European Journal of Nuclear Medicine and Molecular Imaging, 2022).

Experiment: Dosimetry: absorbed organ dose from biodistribution data (MIRD scheme, RADAR mouse phantom)
Format: in vivo
Procedure: Data obtained during the in vivo biodistribution studies were used to calculate the absorbed dose for each organ according to the MIRD-scheme. The time integrated activity concentration coefficients were determined by fitting exponential curves to the activity concentration data points at 1, 4, 24, 48, 96, and 168 h p.i. and integrating these curves over time. The least squares fitting analysis was performed with GraphPad Prism software. The S-values for lutetium-177 were based on the 24 g realistic RADAR mouse phantom. The standard organ weights of this model were used to convert from activity concentration to activity. With this model, the absorbed dose in most organs could be calculated. S-values for organs not included in the mouse model, such as adrenal glands and prostate, were determined with the spherical node model within the Olinda/EXM code.
The absorbed doses determined from the biodistribution assay were extrapolated to the dose the animals received during the radiotoxicity study. Here, the animals received 3 consecutive injections with a 7-day interval.

[1] = female, 3× 120 MBq/1200 pmol, extrapolated cumulative
[2] = male, 3× 40 MBq/400 pmol, extrapolated cumulative
[3] = male, 3× 80 MBq/800 pmol, extrapolated cumulative
[4] = male, 3× 120 MBq/1200 pmol, extrapolated cumulative

CC(C)CC(CC(C)C)NC(=O)[C@H](Cc1cnc[nH]1)NC(=O)CNC(=O)[C@@H](NC(=O)[C@H](C)NC(=O)[C@H](Cc1c[nH]c2ccccc12)NC(=O)[C@H](CCC(N)=O)NC(=O)[C@@H](Cc1ccccc1)NC(=O)COCC(=O)Nc1ccc(CNC(=O)CN2CCN(CC(=O)O)CCN(CC(=O)O)CCN(CC(=O)O)CC2)cc1)C(C)C [[^177Lu]Lu-NeoB, metal not drawn]
Absorbed dose adrenal glands (female, 1× 120 MBq/1200 pmol): 0.82 Gy | Absorbed dose brain (female, 1× 120 MBq/1200 pmol): 0.12 Gy | Absorbed dose colon wall (female, 1× 120 MBq/1200 pmol): 1.81 Gy | Absorbed dose heart wall (female, 1× 120 MBq/1200 pmol): 0.42 Gy | Absorbed dose kidneys (female, 1× 120 MBq/1200 pmol): 5.24 Gy | Absorbed dose liver (female, 1× 120 MBq/1200 pmol): 4.37 Gy | Absorbed dose lungs (female, 1× 120 MBq/1200 pmol): 0.62 Gy | Absorbed dose mammary fat pad (female, 1× 120 MBq/1200 pmol): 1.11 Gy | Absorbed dose osteogenic cells (female, 1× 120 MBq/1200 pmol): 0.07 Gy | Absorbed dose ovaries (female, 1× 120 MBq/1200 pmol): 0.53 Gy | Absorbed dose pancreas (female, 1× 120 MBq/1200 pmol): 3.30 Gy | Absorbed dose small intestine (female, 1× 120 MBq/1200 pmol): 1.80 Gy | Absorbed dose spleen (female, 1× 120 MBq/1200 pmol): 0.68 Gy | Absorbed dose stomach wall (female, 1× 120 MBq/1200 pmol): 1.31 Gy | Absorbed dose total body (female, 1× 120 MBq/1200 pmol): 0.65 Gy | Absorbed dose urinary bladder (female, 1× 120 MBq/1200 pmol): 0.05 Gy | Absorbed dose adrenal glands [1]: 2.47 Gy | Absorbed dose brain [1]: 0.35 Gy | Absorbed dose colon wall [1]: 5.43 Gy | Absorbed dose heart wall [1]: 1.27 Gy | Absorbed dose kidneys [1]: 15.71 Gy | Absorbed dose liver [1]: 13.11 Gy | Absorbed dose lungs [1]: 1.87 Gy | Absorbed dose mammary fat pad [1]: 3.34 Gy | Absorbed dose osteogenic cells [1]: 0.21 Gy | Absorbed dose ovaries [1]: 1.60 Gy | Absorbed dose pancreas [1]: 9.89 Gy | Absorbed dose small intestine [1]: 5.40 Gy | Absorbed dose spleen [1]: 2.05 Gy | Absorbed dose stomach wall [1]: 3.94 Gy | Absorbed dose total body [1]: 1.95 Gy | Absorbed dose urinary bladder [1]: 0.15 Gy | Absorbed dose adrenal glands (male, 1× 40 MBq/400 pmol): 0.58 Gy | Absorbed dose brain (male, 1× 40 MBq/400 pmol): 0.05 Gy | Absorbed dose colon wall (male, 1× 40 MBq/400 pmol): 0.81 Gy | Absorbed dose heart wall (male, 1× 40 MBq/400 pmol): 0.25 Gy | Absorbed dose kidneys (male, 1× 40 MBq/400 pmol): 2.00 Gy | Absorbed dose liver (male, 1× 40 MBq/400 pmol): 2.11 Gy | Absorbed dose lungs (male, 1× 40 MBq/400 pmol): 0.35 Gy | Absorbed dose mammary fat pad (male, 1× 40 MBq/400 pmol): 0.27 Gy | Absorbed dose osteogenic cells (male, 1× 40 MBq/400 pmol): 0.03 Gy | Absorbed dose pancreas (male, 1× 40 MBq/400 pmol): 2.23 Gy | Absorbed dose prostate gland (male, 1× 40 MBq/400 pmol): 0.35 Gy | Absorbed dose small intestine (male, 1× 40 MBq/400 pmol): 0.80 Gy | Absorbed dose spleen (male, 1× 40 MBq/400 pmol): 0.50 Gy | Absorbed dose stomach wall (male, 1× 40 MBq/400 pmol): 1.50 Gy | Absorbed dose testes (male, 1× 40 MBq/400 pmol): 0.02 Gy | Absorbed dose total body (male, 1× 40 MBq/400 pmol): 0.31 Gy | Absorbed dose urinary bladder (male, 1× 40 MBq/400 pmol): 0.02 Gy | Absorbed dose adrenal glands (male, 1× 80 MBq/800 pmol): 0.54 Gy | Absorbed dose brain (male, 1× 80 MBq/800 pmol): 0.12 Gy | Absorbed dose colon wall (male, 1× 80 MBq/800 pmol): 1.21 Gy | Absorbed dose heart wall (male, 1× 80 MBq/800 pmol): 0.46 Gy | Absorbed dose kidneys (male, 1× 80 MBq/800 pmol): 3.25 Gy | Absorbed dose liver (male, 1× 80 MBq/800 pmol): 3.28 Gy | Absorbed dose lungs (male, 1× 80 MBq/800 pmol): 0.87 Gy | Absorbed dose mammary fat pad (male, 1× 80 MBq/800 pmol): 0.23 Gy | Absorbed dose osteogenic cells (male, 1× 80 MBq/800 pmol): 0.06 Gy | Absorbed dose pancreas (male, 1× 80 MBq/800 pmol): 2.31 Gy | Absorbed dose prostate gland (male, 1× 80 MBq/800 pmol): 0.68 Gy | Absorbed dose small intestine (male, 1× 80 MBq/800 pmol): 1.21 Gy | Absorbed dose spleen (male, 1× 80 MBq/800 pmol): 0.72 Gy | Absorbed dose stomach wall (male, 1× 80 MBq/800 pmol): 1.50 Gy | Absorbed dose testes (male, 1× 80 MBq/800 pmol): 0.04 Gy | Absorbed dose total body (male, 1× 80 MBq/800 pmol): 0.47 Gy | Absorbed dose urinary bladder (male, 1× 80 MBq/800 pmol): 0.04 Gy | Absorbed dose adrenal glands (male, 1× 120 MBq/1200 pmol): 0.66 Gy | Absorbed dose brain (male, 1× 120 MBq/1200 pmol): 0.15 Gy | Absorbed dose colon wall (male, 1× 120 MBq/1200 pmol): 0.93 Gy | Absorbed dose heart wall (male, 1× 120 MBq/1200 pmol): 0.68 Gy | Absorbed dose kidneys (male, 1× 120 MBq/1200 pmol): 3.21 Gy | Absorbed dose liver (male, 1× 120 MBq/1200 pmol): 5.61 Gy | Absorbed dose lungs (male, 1× 120 MBq/1200 pmol): 3.91 Gy | Absorbed dose mammary fat pad (male, 1× 120 MBq/1200 pmol): 0.49 Gy | Absorbed dose osteogenic cells (male, 1× 120 MBq/1200 pmol): 0.12 Gy | Absorbed dose pancreas (male, 1× 120 MBq/1200 pmol): 1.54 Gy | Absorbed dose prostate gland (male, 1× 120 MBq/1200 pmol): 0.37 Gy | Absorbed dose small intestine (male, 1× 120 MBq/1200 pmol): 0.94 Gy | Absorbed dose spleen (male, 1× 120 MBq/1200 pmol): 1.35 Gy | Absorbed dose stomach wall (male, 1× 120 MBq/1200 pmol): 1.38 Gy | Absorbed dose testes (male, 1× 120 MBq/1200 pmol): 0.08 Gy | Absorbed dose total body (male, 1× 120 MBq/1200 pmol): 0.66 Gy | Absorbed dose urinary bladder (male, 1× 120 MBq/1200 pmol): 0.08 Gy | Absorbed dose adrenal glands [2]: 1.74 Gy | Absorbed dose brain [2]: 0.15 Gy | Absorbed dose colon wall [2]: 2.43 Gy | Absorbed dose heart wall [2]: 0.75 Gy | Absorbed dose kidneys [2]: 6.00 Gy | Absorbed dose liver [2]: 6.33 Gy | Absorbed dose lungs [2]: 1.05 Gy | Absorbed dose mammary fat pad [2]: 0.81 Gy | Absorbed dose osteogenic cells [2]: 0.09 Gy | Absorbed dose pancreas [2]: 6.69 Gy | Absorbed dose prostate gland [2]: 1.05 Gy | Absorbed dose small intestine [2]: 2.40 Gy | Absorbed dose spleen [2]: 1.50 Gy | Absorbed dose stomach wall [2]: 4.50 Gy | Absorbed dose testes [2]: 0.06 Gy | Absorbed dose total body [2]: 0.93 Gy | Absorbed dose urinary bladder [2]: 0.06 Gy | Absorbed dose adrenal glands [3]: 1.62 Gy | Absorbed dose brain [3]: 0.36 Gy | Absorbed dose colon wall [3]: 3.63 Gy | Absorbed dose heart wall [3]: 1.38 Gy | Absorbed dose kidneys [3]: 9.75 Gy | Absorbed dose liver [3]: 9.84 Gy | Absorbed dose lungs [3]: 2.61 Gy | Absorbed dose mammary fat pad [3]: 0.69 Gy | Absorbed dose osteogenic cells [3]: 0.18 Gy | Absorbed dose pancreas [3]: 6.93 Gy | Absorbed dose prostate gland [3]: 2.04 Gy | Absorbed dose small intestine [3]: 3.63 Gy | Absorbed dose spleen [3]: 2.16 Gy | Absorbed dose stomach wall [3]: 4.50 Gy | Absorbed dose testes [3]: 0.12 Gy | Absorbed dose total body [3]: 1.41 Gy | Absorbed dose urinary bladder [3]: 0.12 Gy | Absorbed dose adrenal glands [4]: 1.99 Gy | Absorbed dose brain [4]: 0.44 Gy | Absorbed dose colon wall [4]: 2.80 Gy | Absorbed dose heart wall [4]: 2.03 Gy | Absorbed dose kidneys [4]: 9.62 Gy | Absorbed dose liver [4]: 16.84 Gy | Absorbed dose lungs [4]: 11.72 Gy | Absorbed dose mammary fat pad [4]: 1.47 Gy | Absorbed dose osteogenic cells [4]: 0.37 Gy | Absorbed dose pancreas [4]: 4.61 Gy | Absorbed dose prostate gland [4]: 1.10 Gy | Absorbed dose small intestine [4]: 2.81 Gy | Absorbed dose spleen [4]: 4.05 Gy | Absorbed dose stomach wall [4]: 4.14 Gy | Absorbed dose testes [4]: 0.23 Gy | Absorbed dose total body [4]: 1.97 Gy | Absorbed dose urinary bladder [4]: 0.24 Gy
